T1: cynomolgus EpCAM protein (cynomolgus, UniProt Q1WER1 27-265 (rhesus entry), limits assumed, biotinylated in the Octet assays (site not stated))
T1 construct: also called cy EpCAM; biotinylated cynomolgus EpCAM protein
T1 sequence: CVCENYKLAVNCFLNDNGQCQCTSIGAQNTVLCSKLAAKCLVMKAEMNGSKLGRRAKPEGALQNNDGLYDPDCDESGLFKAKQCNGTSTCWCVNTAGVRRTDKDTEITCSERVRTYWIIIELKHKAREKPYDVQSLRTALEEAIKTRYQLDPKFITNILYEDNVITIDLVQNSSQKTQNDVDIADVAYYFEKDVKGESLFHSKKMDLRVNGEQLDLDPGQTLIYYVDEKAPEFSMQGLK

T2: human EpCAM protein (human, UniProt P16422 24-265, biotinylated in the Octet assays (site not stated))
T2 construct: also called hu EpCAM; biotinylated human EpCAM protein
T2 sequence: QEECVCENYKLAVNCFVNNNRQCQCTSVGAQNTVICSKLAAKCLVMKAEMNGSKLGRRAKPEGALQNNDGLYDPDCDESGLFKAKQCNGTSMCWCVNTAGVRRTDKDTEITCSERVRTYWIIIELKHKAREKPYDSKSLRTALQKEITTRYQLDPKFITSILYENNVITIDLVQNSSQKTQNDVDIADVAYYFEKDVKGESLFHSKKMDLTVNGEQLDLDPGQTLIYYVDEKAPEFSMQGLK


Assays:
Assay in all cases: colorimetric ELISA
cynomolgus EpCAM protein = molecular target: T1, cynomolgus EpCAM protein
Excerpt: (§1) A phage display library for expression of heavy variable antibody domains was constructed from circulating B cells. See van der Linden, de Geus, Stok, Bos, van Wassenaar, Verrips, and Frenken. 2000. J Immunol Methods 240:185-195.

human EpCAM protein = molecular target: T2, human EpCAM protein
Excerpt: as §1

[1] = molecular target: cynomolgus EpCAM protein (cynomolgus)

Binder | Cynomolgus EpCAM/Control (cynomolgus EpCAM protein) | Human EpCAM/Control (human EpCAM protein) | Cynomolgus EpCAM/Control [1]
EPL15 (VHH) VHH: QVQLQESGGGSVLAGGSLRLSCAASGFTFSSYYMSWVRQAPGKGLEWVSGIHYTGDWTNYADSVKGRFTISRDNAKNELYLEMNNLKPEDTAVYYCARGSDKGQGTQVTVSS | 35 | 8 | –
EPL34 (VHH) VHH: QVQLQESGGGSVQAGGSLRLSCAASGFTFSSYYMSWVRQAPGKGLEWVSGIHYTGDWTNYADSVKGRFTISRDNAKNELYLEMNNLKPEDTAVYYCARGSDKGQGTQVTVSS | 36 | 10 | –
EPL20 (VHH) VHH: QVQLQESGGGLVQAGGSLKLSCAASGNVFRAATMAWYRQAPEKQREMVATIASGGTTNYADFVKGRFTISRDNAKNTVYLQMNTLKPEDTAVYYCNAGYLTSLGPKNYWGQGTQVTVSS | 4 | 6 | –
EPL125 (VHH) VHH: QVQLQESGGGLVQAGGSLRLSCAASGNVFRAATMAWYRQVPEKQREMVATIASGGTTNYADFVKGRFTISRDNAKNTVYLQMNTLKPEDTAVYYCNALYLTSLGPKSYWGQGTQVTVSS | 8 | 8 | –
EPL60 (VHH) VHH: QVQLQESGGGLVQAGGSLRLSCAASEYILSMYRMAWYRQAPGKVRELVADMSSGGTTNYADFVKGRFTISRDNDRNTVYLQMNRLQPEDTAAYYCNVAGRTGPPSYDAFNNWGQGTQVTVSS | 33 | 10 | –
EPL57 (VHH) VHH: QVQLQESGGGLVHTGGSLRLSCAFSGDTFLRYAMGWFRQAPGKEREFVAAITWNGGNTDYADSLKGRFTISRDNTKNTVYLQMNSLRPEDTAVYYCAADLTFGLASSHYQYDYWGQGTQVTVSS | 27 | 14 | –
EPL86 (VHH) VHH: QVQLQESGGGLVQPGGSLRLSCAASGFTFSDWAMSWVRQAPGKGLEWVSGIHYGDHTTHYADFVKGRFTISRDDAKNTLYLQMNSLKPEDTAVYYCARGSTKGQGTQVTVSS | 31 | 8 | –
EPL129 (VHH) VHH: QVQLQESGGGLVQAGGSLRLSCAASGFAFGNHWMYWYRQAPGRGRELVASISSGGSTNYVDSVKGRFTISRDNARNTVYLQMYSLRPEDTAVYYCGTSDNWGQGTQVTVSS | 29 | 20 | –
EPL13 (VHH) VHH: QVQLQESGGGLVQPGGSLRLSCAASGFAFGNHWMYWYRQAPGRGRELVASISSGGSTNYVDSVKGRFTISRDNARNTVYLQMYSLKPEDTAVYYCGTSDNWGQGTQVTVSS | 23 | 17 | –

More lines, now with the values ahead:

Cynomolgus EpCAM/Control (cynomolgus EpCAM protein) | Human EpCAM/Control (human EpCAM protein) | Cynomolgus EpCAM/Control [1] | Binder
17 | 16 | – | EPL156 (VHH) VHH: QVQLQESGGGLVQPGASLRVSCAASEYILSMYRMAWYRQAPGKVRELVADMSSGGTTNYADFVKGRFTISRDNDRNTVYLQMNRLQPEDTAAYYCNVAGRTGPPSYDAFNNWGQGTQVTVSS
13 | 9 | – | EPL136 (VHH) VHH: QVQLQESGGGLVQPGGSLRLSCAASGDTFLRYAMGWFRQAPGKEREFVAAITWNGGNTDYAGSLKGRFTISRDNTKNTVYLQMNSLKPEDTAVYYCAADLTFGLASSHYQYDYWGQGTQVTVSS
21 | 31 | – | EPL153 (VHH) VHH: QVQLQESGGGLVQPGGSLRLSCAASGFTFSDWAMSWVRQAPGKGLEWVSSIHYGDHTTHYADFVKGRFTISRDDAKNTLYLQMNSLKPEDTAVYYCEKGTTRGQGTQVTVSS
– | – | 2 | EPL159 (VHH) VHH: QVQLQESGGGLVQAGGSLRLSCAASGFAFGNHWMYWYRQAPGRGRELVASISSGGSTNYVDSVKGRFTISRDNARNTVYLQMYSLKPEDTAVYYCGTSDNWGQGTQVTVSS
– | 3 | 2 | EPL145 (VHH) VHH: QVQLQESGGGLVQAGGSLRLSCAASGFIFRAASMGWFRQSPGNERELVATVSSGGFTNYADSVKGRFTISRDNAKNTVYLQMNSLKPEDTAVYFCGATFVRSDGHHTIYGQGTQVTVSS
